Laboratory results reported in patent US6093549, “Huntingtin-associated protein-related assays” (The Johns Hopkins University, dated 2000).

Molecular target: GAL-4 binding domain vector alone (pPC97) (yeast, UniProt P04386)
Assay: yeast two-hybrid filter assay
Text: A cDNA encoding the first 230 amino acids of huntingtin containing 44 glutamine repeats was ligated to the GAL-4 binding domain in plasmid vector pPC97 for yeast two hybrid screening with a rat brain cDNA library.
A cDNA construct containing the first 230 amino acids with 44 or 23 glutamine repeats was in-frame fused with the GAL4 DNA binding domain of plasmid pPC97[27].

B1: rHAP1-BR (rat huntingtin Associated Protein1 Binding Region), GAL-4 activation domain construct (other)
chain: LLEEENDHLREEASHLDNLEDKEQMLILECVEQFSEASQQMAELSEVLVLRLEGYERQQKEITQLQAEITKLQQRCQSYGAQTEKLQQQLASEKGVHPESLRAGSHMQDYGSRPRERQEDGKSHRQRSSMPAGSVTHYGYSVPLDALPSFPETLAEELRTSLRKFITDP
  binding result: no binding
